Data taken from the domain aggregation screens of Martell et al. (2025).

Test: soluble fraction after stress (log2 fold change); higher = more stays soluble; pooled small domains, quantitative proteomics
Details: stress: 50 degC
Summary of the method: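 Each library was heated to 50°C as a stress step. The libraries, made up of small protein domains, were pooled and analysed at high throughput by quantitative proteomics. The reported value is the base-two logarithm of the fold change in each protein's soluble amount after stress, taken as a measure of aggregation propensity. The higher the value, the more protein stays in solution.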

Row | Sequence | soluble fraction (log2)
1 | HMIINKFERRKEIQIQFNNQERIKFKDFFLNLSKENIIVSFLILLELVRESLIDFSGTNENDIEFFIK | -2.3
2 | HMIITTPYKVTASAINIRSGRGTSYSIIGTVSKGQTVDVYNNSLSKGWVKVKFSGSVGYAYAKYLEK | -0.299
3 | HMIIVMSANANAREISEVIARIRAMGYDVHLSHGKERTIIGVIGRGTPIDREQLSLMSGVQQVMPV | -1.03
4 | HMIKIEDILNVESVELSDSEYKKFLNGILINVKNLENGWAKVYSGNEFKGFGIVDKNLLKRKIVID | -0.426
5 | HMIKIEDYTNKDYNKVEASLEVKGLVVNIEYKAVDDKAKYKGKEDLIIDQSVKKDATLVKGDTIILYLPK | -0.268
6 | HMIKISDYLSEEDLNFIKEMEKIYPYFDFDSEGNLILTKSIDELKDKYGFDEAFVSRLDTVLNSR | 0.0178
7 | HMIKITLGWVISVRRHDLGYTQHKMARAVGISDLTVSRIESDDGITPDNNTLRKIAEYLKIDYNSLLTLK | -1.73
8 | HMIKLIKKDTNISELKMSKMPWDVMLYGKPYQVVSIKGYVHTIGGRRGENDLWMYPRDESPTYENLIEFQ | -2.61
9 | HMIKNKDRIQYTLAHRKAFRKIEKELLGYNTFRSLFHDLDKVFLYPFFDYKKVHNFHRNHAHH | 0.199
10 | HMIKRETNDNPVDPASLSLGDRVKILTLNQNGEIISLPDEKGLLQVQVGIMKIGVNVSDIMLI | -0.0513
11 | HMIKRITDEQHPVDVDRLLVVTFTNAAASEMRERIGDAIEAALEKDPYNQHLQRQLTLVHNAQITTIDS | -0.0115
12 | HMIKSEERIQNIKEYILEFQFTYHRTPTMAQIAEAVGTVKSNVYKYLSEMEERGILTRNKREIEINDTIQ | -0.819
13 | HMIKSMTGYGSAKGTVEGIEVSVELKSVNNKFLDTSIRLPRSFLFAEETIKQAVSSHISRGKVDVFVSVDS | ≥ 0.62
14 | HMIKYTIEELGELTGFTRRTIRYYVQEGLIDPPAGRGRGGFYYDSHVQQLLRIKSFQEKGIGITAMVSLM | -2.51
15 | HMILEEIIGKNIARYREAAGLTQATLAEKIGISTAFVSRVERGQKKMKVETLYATAKVLNVSVDALLS | -2.1
16 | HMILKNVPSNLVNQRLDKVATVLFQTYSRTQIKKWILEGRLLVNGEISNPKDLVNENDEIEINPI | -1.6
17 | HMILKQTHIVQELTGPIRLQEYGVGIFQQISTKSALKKALKKNQITVDGVVGSTATFIKGGEIIIYHVTE | -2.75
18 | HMILNDRSELLDVVKRVIAANPASVADYRKGKKKVLGFLVGQAMKETKGQADPRILNELFLQELGEN | 0.0223

Row | Sequence | soluble fraction (log2)
19 | HMILNNAKINTELNSLAEFTQRSLDSNTSEIGFYDYKKISYIASFATMKTTNWNVIIRAPINEFMGTVN | 0.101
20 | HMILQTLSERVTETLRDWILHGHFKPGDKIEEVPIAERMGVSRTPVRAAFATLTNEGLIDHQPNRGYQVRV | -0.325
21 | HMILSTNFFRHIVPKEYQTSYGTMKKWLTDHNVIGTNSIPQGIGYRIPTQGLSSTFSFKVVDVLPDR | -0.525
22 | HMIMDQTILRKQRELTDRLNRYRNEYYNHNKPSVSDEVYDRLFDELQSLEKETGVQMANSPTTTVG | -0.0145
23 | HMIMGTITKRTNPSGAIVYRAQIRIKKAGYPDFSESRTFSKKAMAVEWLKLREAELEMHPELLFR | -1.34
24 | HMIMHLNQIIRNKRLAAGLTQEALAQKVGVTAPAVSKWEKGISYPDITLLPILARNLNTDVNTLLDFSA | -0.641
25 | HMIMNLNVLANNVRRLRTAQRLSQSALASKAGLSVPAIKNLENARNEPRVNTVQVIAHALEVRLQDLFAPT | -1.62
26 | HMIMTEKEKKLLNRYIMHDTIHKLYHEQNKSMRWIADNLGINFRTVQKYLDMDSGEFQKYSESISNR | -0.48
27 | HMIMTIYEYIARNNPTGAKRVIESFGYVVTQPKKMGDNLRMLVAQEGEPALKAVVDLHPDKDLILEV | -2.87
28 | HMINAQETEIYRFLIEKANRLYSMVLGLKREELMTATRQFEEEVKHSSIHHLPKIYQAFSSYLELLERG | -0.478
29 | HMINDKLQHLFSLFPAMDKELKRKGITRQILWVEYKKQYPLGFGRSQFNSYFAAWKAQVSPS | -1.52
30 | HMINFLSKREIEVLRLVADGLSNRDVGQYLFISESTVKRHLSTIYEKLAVKSRTQAIDHARRADL | -3.91
31 | HMINGTITFYDDTTLKGELSSLDTKYLFIIPNGLVMPEKIAVSDIEYFNLDNGITLIQDGISKQTY | -1.25
32 | HMINLGDLEVGHTYHTRMPILQNDLKYSHKSPIQIVAEHSIVYGVRVYIGFLNEHRVLVTADDV | 0.0223
33 | HMINLRTALNNAGVMQKELSDILYMTPQDVNRRFSGVTKWKPLEKRAIMQFLEDRGFEYTEEQLF | -0.532
34 | HMINLVPFELKFITAQVLDDIIKKIGINADTIILDINPKKIWVYAGEQELSDIQNIVKNVDVEDNI | -0.443
35 | HMINVLTPKQIEATTIAVKYGYYENPRTVSMRELSEISGIARSTLQEHLSKAEAALMILAAKSQL | -0.338
